According to patent US6887705B1, “Tyrosine phosphorylated cleavage furrow-associated proteins (PSTPIPs)” (Genentech, Inc., priority 1997, dated 2005):
Like-named read-outs stand apart in the source and are kept apart here.

B1: PXXP-HSCF peptide (PTP HSCF 432-451) (peptide)
peptide: GFNLRIGRPKGPRDPPAEWT
notes: Synthetic, FMOC chemistry; also called proline rich peptide derived from the C-terminal homology region of PTP HSCF
B2: PXXP-PEP peptide (PTP PEP 782-800) (peptide)
peptide: GFGNRFSKPKGPRNPPSAW
notes: Synthetic, FMOC chemistry; also called proline rich peptide derived from the C-terminal homology region of PTP PEP
B3: PXXP-PEST peptide (PTP PEST 761-780) (peptide)
peptide: GFGNRCGKPKGPRDPPSEWT
notes: Synthetic, FMOC chemistry; also called proline rich peptide derived from the C-terminal homology region of PTP PEST
B4: deletion of the C-terminal 20 amino acid homology domain of PTP HSCF: PTP HSCF deletion mutant missing the C-terminal homology domain (protein, UniProt Q99952 1-440, looked up, fragment)
chain: MSRSLDSARSFLERLEARGGREGAVLAGEFSDIQACSAAWKADGVCSTVAGSRPENVRKNRYKDVLPYDQTRVILSLLQEEGHSDYINGNFIRGVDGSLAYIATQGPLPHTLLDFWRLVWEFGVKVILMACREIENGRKRCERYWAQEQEPLQTGLFCITLIKEKWLNEDIMLRTLKVTFQKESRSVYQLQYMSWPDRGVPSSPDHMLAMVEEARRLQGSGPEPLCVHCSAGCGRTGVLCTVDYVRQLLLTQMIPPDFSLFDVVLKMRKQRPAAVQTEEQYRFLYHTVAQMFCSTLQNASPHYQNIKENCAPLYDDALFLRTPQALLAIPRPPGGVLRSISVPGSPGHAMADTYAVVQKRGAPAGAGSGTQTGTGTGTGARSAEEAPLYSKVTPRAQRPGAHAEDARGTLPGRVPADQSPAGSGAYEDVAGGAQTGGLGF
B5: R444+W450: PTP HSCF double mutant with R444 and W450 mutated to alanine (protein)
chain: MSRHTDLVRSFLEQLEARDYREGAILAREFSDIKARSVAWKSEGVCSTKAGSRLGNTNKNRYKDVVAYDETRVILSLLQEEGHGDYINANFIRGIDGSQAYIATQGPLPHTLLDFWRLVWEFGVKVILMACQETENGRRKCERYWAREQEPLKAGPFCITLTKETTLNADITLRTLQVTFQKEFRSVHQLQYMSWPDHGVPSSSDHILTMVEEARCLQGLGPGPLCVHCSAGCGRTGVLCAVDYVRQLLLTQTIPPNFSLFQVVLEMRKQRPAAVQTEEQYRFLYHTVAQLFSRTLQDTSPHYQNLKENCAPICKEAFSLRTSSALPATSRPPGGVLRSISVPAPPTLPMADTYAVVQKRGASAGTGPGPRAPTSTDTPIYSQVAPRAQRPVAHTEDAQGTTALRRVPADQNSSGPDAYEEVTDGAQTGGLGFNLRIGRPKGPADPPAEATRV
modifications: left off: small tags and cut ends
notes: PTP HSCF double mutant with R444 and W450 mutated to alanine

Experiments:
[1] = target: T1, full-length PSTPIP tagged with the FLAG epitope at the C-terminus (murine, UniProt P97814 1-415); assay: peptide competition of the GST-PST-rich+CTH PTP HSCF pulldown of in vitro translated PSTPIP
T1 construct: In vitro transcribed/translated in rabbit reticulocyte lysate, or expressed in COS cells
T1 sequence: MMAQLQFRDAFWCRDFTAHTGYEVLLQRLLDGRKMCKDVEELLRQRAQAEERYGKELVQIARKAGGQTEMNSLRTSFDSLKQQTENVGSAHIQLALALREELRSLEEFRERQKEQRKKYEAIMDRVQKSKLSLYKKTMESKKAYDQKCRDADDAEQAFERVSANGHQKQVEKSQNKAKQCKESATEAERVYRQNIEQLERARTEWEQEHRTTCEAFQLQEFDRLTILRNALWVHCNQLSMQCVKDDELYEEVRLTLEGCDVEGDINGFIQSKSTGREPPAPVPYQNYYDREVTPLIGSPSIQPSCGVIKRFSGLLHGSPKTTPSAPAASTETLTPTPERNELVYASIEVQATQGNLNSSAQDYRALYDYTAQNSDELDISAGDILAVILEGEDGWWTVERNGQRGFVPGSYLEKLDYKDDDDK
Description: This was reacted for 1 hour at 4° C. and then the resin washed 6 times in HEPES/Triton binding buffer before SDS gel electrophoresis. The peptides were synthesized on an automated Milligen 9050 Peptide Synthesizer using standard solid phase chemistry with FMOC protected amino acids on a p-alkoxybenzyl alcohol resin. Dried peptides were re-suspended in the HEPES/Triton Binding buffer at a concentration of 10 mg/ml. Peptide inhibition was performed by adding the peptide first to the in vitro translation product and then the GST-fusion followed by the GSH-Sepharose. The binding/washing steps were as previously described. The peptides synthesized and the PTPs they were derived from were:
The region of PTP HSCF which interacts with PSTPIP was identified by producing deletion mutants of the enzyme missing either the 20 amino acid C-terminal domain which is highly conserved in all of the PEST PTPs (Yang et al. (1993) supra, Matthews et al., (1992) supra, Cheng et al., (1996) supra, Huang et al., (1996) supra, Aoki et al., (1996) Dosil et al., (1996) supra and Kim et al., (1996) supra) or both this domain as well as the longer proline, serine and threonine rich region C-terminal to the catalytic domain (FIG. 4A). FIG. 4B-C reveal that deletion of the C-terminal 20 amino acid homology domain of PTP HSCF completely abolished the interaction between PTP HSCF and PSTPIP. Because this region is conserved in all PEST PTPs, it is possible that both PTP PEST (Yang et al., (1993) supra) as well as PTP PEP (Matthews et al., (1992) supra) also interact with PSTPIP. In order to examine this possibility, as well as to examine if the 20 amino acid C-terminal region is sufficient for this interaction, 20 residue long peptides derived from the homologous C-terminal domain of three PEST PTPs were used to compete with the interaction between PTP HSCF and PSTPIP (FIG. 4D). In this form of the assay, a GST fusion derived from the PST-rich and C-terminal homology regions of the phosphatase was used to precipitate in vitro translated PSTPIP in the presence of varying amounts of peptides. […]

PSTPIP = target: T2, PSTPIP (Mus musculus, UniProt P97814); assay: In vitro GST pull-down binding of PTP HSCF forms to GST PSTPIP; parameters: species or system murine; details: 1 or 10 μg/ml GST PST PIP
T2 construct: containing the full-length cDNA for PSTPIP (amino acids 2-415) was subcloned into pGEX4T-2; made in house; host or cells: E. coli DH5-alpha
T2 sequence (P97814 2-415): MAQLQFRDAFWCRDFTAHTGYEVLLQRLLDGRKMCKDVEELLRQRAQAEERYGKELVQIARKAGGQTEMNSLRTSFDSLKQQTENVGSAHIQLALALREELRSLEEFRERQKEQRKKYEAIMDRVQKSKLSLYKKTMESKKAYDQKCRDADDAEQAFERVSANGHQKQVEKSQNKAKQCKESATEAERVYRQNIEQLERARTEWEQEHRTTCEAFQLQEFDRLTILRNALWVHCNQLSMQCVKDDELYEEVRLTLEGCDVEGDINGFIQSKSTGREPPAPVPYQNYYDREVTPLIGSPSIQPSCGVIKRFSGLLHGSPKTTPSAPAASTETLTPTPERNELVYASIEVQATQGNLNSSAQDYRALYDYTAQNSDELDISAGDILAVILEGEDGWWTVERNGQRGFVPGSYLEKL
Description: The binding was carried out according to the method of Wong and Johnson (Wong et al., J. Biol. Chem. 271(35):20981-20984 (1996)). Briefly, 1 μg of plasmid with either the PSTPIP protein or PTP HSCF under the control of the Sp6 promoter was in vitro transcribed/translated using the Promega™ TnT Rabbit Reticulocyte™ system. Samples were diluted in 50 mM HEPES, pH 7.2, 1% triton X 100, 10% glycerol, 100 mM NaCl, 5 mM EDTA and 2 μg/ml each of leupeptin, pepstatin, aprotinin, and PMSF. […] This was reacted for 1 hour at 4° C. and then the resin washed 6 times in HEPES/Triton binding buffer before SDS gel electrophoresis. The peptides were synthesized on an automated Milligen 9050 Peptide Synthesizer using standard solid phase chemistry with FMOC protected amino acids on a p-alkoxybenzyl alcohol resin. Dried peptides were re-suspended in the HEPES/Triton Binding buffer at a concentration of 10 mg/ml. Peptide inhibition was performed by adding the peptide first to the in vitro translation product and then the GST-fusion followed by the GSH-Sepharose. […]
In vitro binding analyses between various PTP HSCF and PST PIP constructs were performed as previously described (Spencer et al, (1997), supra). […] Samples were than reacted with GST fusion proteins at various concentrations, and the bound proteins were centrifuged using glutathione-sepharose beads and analyzed on SDS polyacrylamide gels. […]

[2] = test system: PST PIP - PTP HSCF association; assay: Coprecipitation of PST PIP and PTP HSCF from co-transfected COS cells; type: cell-based
Description: COS-7 cells were transfected by electroporation. Briefly, 1.5×10^6 COS-7 cells were mixed with 24 μg total DNA in PBS and electroporated at 960 μF, […] (Bio-Rad™ Gene Pulsar™). Following electroporation, cells were seeded in 10 cm dishes and incubated for 3 days. 10-cm dishes of transfected COS cells were washed twice with ice-cold PBS, and lysed in 1 ml of M-RIPA (50 mM Tris 7.4, 1% NP40, 0.25% DOC, 150 mM NaCl, 1 mM sodium ortho-vanadate, 1 mM NaF plus Complete™ Protease Inhibitors (Boehringer Mannheim)). Lysates were incubated for 15 minutes with 100 μl UltraLink Immobilized Protein A/G™ (Pierce) at 4° C., followed by centrifugation for 5 minutes. Supernatants were collected and stored at −70° C. or directly immunoprecipitated. 5 μg of M2 or 12CA5 was added to 500 μl of lysate and incubated overnight at 4° C. Ultralink Protein A/G™ was added and incubation continued for 2 hours at 4° C. The immune complexes were washed 3 times with M-RIPA. The proteins were subjected to SDS-PAGE and transferred to nitrocellulose in 1X Transfer Buffer™ (Novex). Immunoblots were blocked overnight at 4° C. in 3% milk/PBS. To detect Flag-tagged PIP, blots were incubated with 10 μg/ml Bio-M2 (Biotinylated anti-FLAG monoclonal Ab, KODAK) followed by incubation in 10 μg/ml streptavidin-HRP (UBI). To detect HA-tagged PTPhscf, blots were incubated in anti-(HA)-peroxidase (Boehringer Mannheim) as per manufacturer's instructions. To detect phosphotyrosine, blots were incubated in HRP-conjugated 4G10 (anti-phosphotyrosine monoclonal, UBI) as per manufacture's instructions.
In vitro binding analyses between various PTP HSCF and PST PIP constructs were performed as previously described (Spencer et al, (1997), supra). Briefly, plasmids were transcribed and translated in vitro using the TnT Rabbit Reticulocyte Lysate System (Promega). Samples were diluted in 50 mM HEPES, pH 7.2, 1% triton X-100, 10% glycerol, 100 mM NaCl, and 2 μg/ml each of leupeptin, pepstatin, aprotinin and PMSF (lysis buffer). Samples were than reacted with GST fusion proteins at various concentrations, and the bound proteins were centrifuged using glutathione-sepharose beads and analyzed on SDS polyacrylamide gels. C-terminally-derived peptide inhibition studies were performed by incubating the GST fusion protein binding reactions in the presence of 10 μg/ml of the indicated peptides. Peptides were produced by FMOC-protected amino acids as previously described (Spencer et al, (1997), supra). In vivo interactions between various forms of PTP HSCF and PST PIP were also performed as previously described (Spencer et al, (1997), supra). Briefly, COS cells were transfected with various constructs, and after 48 hours, lysates were prepared and immunoprecipitated with antibodies to either the FLAG epitope contained at the C-terminus of PST PIP or an HA epitope contained at the N-terminus of PTP HSCF. The resultant blots were probed with anti-FLAG to detect PST PIP, anti-HA to detect PTP HSCF or anti-phosphotyrosine to detect levels of this modified amino acid in each protein.

Molecule	lowest peptide concentration that effectively blocks the interaction [1]	binding of in vitro translated PTP HSCF forms to GST PSTPIP (PSTPIP)	in vivo association (coprecipitation) of PST PIP and PTP HSCF [2]	in vivo association (coprecipitation) of PST PIP and PTP HSCF ([2]; listed as PTP HSCF444+450)
B1	~800 nM			
B2	~800 nM			
B3	~800 nM			
B4		completely abolished the interaction		
B5		stronger inhibitory effect on binding to PST PIP	as poor at interacting in vivo with PST PIP as the mutant which was missing the entire C-terminal proline rich domain	complete loss of coprecipitation
